PMC10267556

Biological target: SARS-CoV-2 Omicron BA.4/5 spike (S) trimer, prefusion-stabilised ectodomain (SARS-CoV-2 (Omicron BA.4/5) | bacteriophage T4) (UniProt P0DTC2)
Test: cryo-EM structure

“SARS-CoV-2 Omicron BA.4/5 spike (S) trimer, prefusion-stabilised ectodomain (from UniProt P0DTC2 14-1208) (complex)” was tested. Which stoichiometry N did it give?
Its stoichiometry N is 3.
